The target of assay [1] is pol-βwt (full-length DNA polymerase β) fused to the yeast Gal4 activation domain (pGAD-C3-pol-βwt) (yeast; human, UniProt P06746 1-335). The experiment in a line: yeast two-hybrid (growth on SD-ULH medium with 5 mM 3-amino-1,2,4-triazole).
In assay [2] the target is pol-βMut(Set-1) (T79A/K81A/R83A) fused to the yeast Gal4 activation domain (pGAD-C3-pol-βMut(Set-1)) (yeast; human, UniProt P06746 1-335). The assay is described as above.

B1: APC(I-A,Y-A) (amino acids 1200-1324; I1259A, Y1262A) fused to the yeast Gal4 DNA-binding domain (pGBDU-C3-APC(I-A,Y-A)) (other)
chain: SSSGQSSKTEHMSSSSENTSTPSSNAKRQNQLHPSSAQSRSGQPQKAATCKVSSINQETAQTACVEDTPICFSRCSSLSSLSSAEDEIGCNQTTQEADSANTLQIAEIKEKIGTRSAEDPVSEVP
notes: also called mutant APC (I-A,Y-A); mutant DRI-domain
Regarding B1, the binding result in assay [1] was “no binding”.

B2: APCwt (amino acids 1190-1328) fused to the yeast Gal4 DNA-binding domain (pGBDU-C3-APCwt) (other)
chain: MKLLSSIEQACDICRLKKLKCSKEKPKCAKCLKNNWECRYSPKTKRSPLTRAHLTEVESRLERLEQLFLLIFPREDLDMILKMDSLQDIKALLTGLFVQDNVNKDAVTDRLASVETDMPLTLRQHRISATSSSEESSNKGQRQLTVSSQKQSFSFSKSSSGQSSKTEHMSSSSENTSTPSSNAKRQNQLHPSSAQSRSGQPQKAATCKVSSINQETIQTYCVEDTPICFSRCSSLSSLSSAEDEIGCNQTTQEADSANTLQIAEIKEKIGTRSAEDPVSEVPAVSQ
notes: Yeast two-hybrid bait, expressed in S. cerevisiae PJ69-4A; also called APC wild-type (wt)
Consider B2, for which the binding result in assay [2] is on record as “no binding”.

For the origin of these results see US9144596 (UNIVERSITY OF FLORIDA RESEARCH FOUNDATION, dated 2015).
